Experiment [1] has as its target recombinant human FcRn (human) (UniProt P55899). As to the kind of experiment: ELISA; recombinant human FcRn coated, serially diluted test article, anti-human (H+L)-HRP, 4PL fit. (ELISA stands for enzyme-linked immunosorbent assay.)
For experiment [2], the target named is biotinylated recombinant human FcγRIIIa (Val 176 variant) protein (Sino Biological) (human) (UniProt P08637). As to the kind of experiment: AlphaScreen competition; biotinylated FcγRIIIa (Val 176 variant), competitor human IgG acceptor beads, 4PL fit.
For experiment [3], the target named is biotinylated recombinant human FcγRI protein (Sino Biological) (human) (UniProt P12314). Briefly: AlphaScreen competition; biotinylated FcγRI, competitor human IgG acceptor beads, 4PL fit. Background: Bead proximity is the source of the signal in Alpha formats.
The target is the same in experiment [4]. Described as above. This is another data set of the same source.
For experiment [5], the target named is biotinylated recombinant human FcγRIIIa (Val 176 variant) protein (Sino Biological) (human) (UniProt P08637). Briefly: AlphaScreen competition; biotinylated FcγRIIIa (Val 176 variant), competitor human IgG acceptor beads, 4PL fit. This is another data set of the same source.
For experiment [6], the target named is recombinant human C1q protein (Fitzgerald) (human) (UniProt P02745). As to the kind of experiment: ELISA; serially diluted test article immobilized, recombinant human C1q added, anti-C1q-HRP, 4PL fit.
Experiment [7] shares this target. The experiment is described as above. This is another data set of the same source.
Experiment [8] deals with mouse FLT3 on the M1 cell line (mouse) (UniProt Q00342). Briefly: cell-based or functional assay.
For experiment [9], the target named is human FLT3 on the AML5 cell line (human) (UniProt P36888). Briefly: cell-based or functional assay.

Like-named read-outs stand apart in the source and are kept apart here.

The record followed here is patent publication US20220389394A1.

biotinylated recombinant human FcγRIIIa (Val 176 variant) protein (Sino Biological) (human), sequence (P08637 other isoform, or with tags, fused parts or gaps mutant limits assumed): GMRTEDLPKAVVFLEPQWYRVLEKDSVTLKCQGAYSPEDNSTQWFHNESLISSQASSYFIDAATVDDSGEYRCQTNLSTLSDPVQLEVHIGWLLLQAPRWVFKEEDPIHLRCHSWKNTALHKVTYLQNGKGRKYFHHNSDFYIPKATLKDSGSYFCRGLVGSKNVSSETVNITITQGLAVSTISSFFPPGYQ
biotinylated recombinant human FcγRI protein (Sino Biological) (human), sequence (P12314 16-288 limits assumed): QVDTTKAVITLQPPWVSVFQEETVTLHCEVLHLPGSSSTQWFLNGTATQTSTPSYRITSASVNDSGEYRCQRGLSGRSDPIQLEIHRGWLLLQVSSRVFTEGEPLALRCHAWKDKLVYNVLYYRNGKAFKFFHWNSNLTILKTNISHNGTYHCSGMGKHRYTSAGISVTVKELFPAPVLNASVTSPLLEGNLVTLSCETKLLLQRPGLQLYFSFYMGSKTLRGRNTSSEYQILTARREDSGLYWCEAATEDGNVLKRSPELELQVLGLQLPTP
mouse FLT3 on the M1 cell line (mouse), sequence (Q00342 28-1000): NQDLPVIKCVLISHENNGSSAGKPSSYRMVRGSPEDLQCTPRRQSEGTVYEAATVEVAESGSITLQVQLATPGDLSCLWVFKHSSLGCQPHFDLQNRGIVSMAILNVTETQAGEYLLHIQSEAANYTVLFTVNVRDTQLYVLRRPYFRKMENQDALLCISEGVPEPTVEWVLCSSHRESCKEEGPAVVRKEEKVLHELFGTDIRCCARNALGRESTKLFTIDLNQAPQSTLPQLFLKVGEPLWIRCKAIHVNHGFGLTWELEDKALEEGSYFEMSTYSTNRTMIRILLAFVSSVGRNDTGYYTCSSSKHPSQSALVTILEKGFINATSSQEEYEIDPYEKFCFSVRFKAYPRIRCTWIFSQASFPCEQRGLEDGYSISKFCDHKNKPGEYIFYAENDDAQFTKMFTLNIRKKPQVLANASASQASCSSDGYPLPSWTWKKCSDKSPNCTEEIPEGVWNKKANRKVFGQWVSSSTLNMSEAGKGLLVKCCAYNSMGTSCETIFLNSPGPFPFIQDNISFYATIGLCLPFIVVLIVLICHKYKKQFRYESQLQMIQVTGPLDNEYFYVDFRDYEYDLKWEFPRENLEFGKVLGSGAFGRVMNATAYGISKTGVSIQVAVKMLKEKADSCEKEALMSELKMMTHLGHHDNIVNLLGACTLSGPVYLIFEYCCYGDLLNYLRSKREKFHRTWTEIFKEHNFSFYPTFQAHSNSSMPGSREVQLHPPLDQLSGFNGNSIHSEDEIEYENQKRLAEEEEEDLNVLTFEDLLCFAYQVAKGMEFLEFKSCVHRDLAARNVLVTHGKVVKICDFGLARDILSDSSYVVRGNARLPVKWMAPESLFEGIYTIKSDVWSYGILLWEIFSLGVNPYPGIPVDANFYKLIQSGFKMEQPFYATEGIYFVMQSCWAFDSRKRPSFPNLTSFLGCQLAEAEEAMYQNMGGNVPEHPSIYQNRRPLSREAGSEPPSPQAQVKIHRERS
recombinant human FcRn (human), sequence (P55899 24-297 limits assumed, chain 1 of 2): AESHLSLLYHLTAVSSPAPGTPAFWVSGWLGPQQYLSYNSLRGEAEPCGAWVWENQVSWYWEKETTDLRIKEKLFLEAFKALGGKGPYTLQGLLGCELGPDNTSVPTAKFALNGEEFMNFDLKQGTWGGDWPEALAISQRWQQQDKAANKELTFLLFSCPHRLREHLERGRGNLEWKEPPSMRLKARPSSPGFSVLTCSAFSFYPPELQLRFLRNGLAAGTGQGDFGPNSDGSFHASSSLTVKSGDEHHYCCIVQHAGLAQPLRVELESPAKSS
recombinant human FcRn (human), sequence (chain, as listed by the source limits assumed, chain 2 of 2): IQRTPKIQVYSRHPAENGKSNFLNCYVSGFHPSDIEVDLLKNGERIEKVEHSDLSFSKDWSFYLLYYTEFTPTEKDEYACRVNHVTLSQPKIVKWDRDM
recombinant human C1q protein (Fitzgerald) (human), sequence (P02745 23-245 limits assumed, chain 1 of 3): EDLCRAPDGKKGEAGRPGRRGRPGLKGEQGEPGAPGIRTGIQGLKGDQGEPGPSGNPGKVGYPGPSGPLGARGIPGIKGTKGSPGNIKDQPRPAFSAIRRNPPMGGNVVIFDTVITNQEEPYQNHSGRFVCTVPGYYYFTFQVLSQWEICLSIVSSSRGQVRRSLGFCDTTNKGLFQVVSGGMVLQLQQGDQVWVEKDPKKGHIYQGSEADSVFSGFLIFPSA
recombinant human C1q protein (Fitzgerald) (human), sequence (P02746 28-253 limits assumed, chain 2 of 3, further chain): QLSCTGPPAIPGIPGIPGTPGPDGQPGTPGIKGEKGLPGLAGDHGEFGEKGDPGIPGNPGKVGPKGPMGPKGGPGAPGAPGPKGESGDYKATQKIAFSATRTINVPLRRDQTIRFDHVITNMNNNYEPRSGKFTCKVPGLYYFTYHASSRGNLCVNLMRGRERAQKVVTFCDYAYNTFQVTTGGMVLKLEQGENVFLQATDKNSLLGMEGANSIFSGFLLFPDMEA
recombinant human C1q protein (Fitzgerald) (human), sequence (P02747 29-245 limits assumed, chain 3 of 3, further chain): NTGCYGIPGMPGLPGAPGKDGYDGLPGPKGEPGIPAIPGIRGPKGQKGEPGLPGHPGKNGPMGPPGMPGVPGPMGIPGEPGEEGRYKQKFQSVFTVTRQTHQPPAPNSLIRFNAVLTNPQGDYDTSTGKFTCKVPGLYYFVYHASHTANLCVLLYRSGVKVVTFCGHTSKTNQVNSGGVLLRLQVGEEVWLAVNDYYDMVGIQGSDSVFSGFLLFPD
human FLT3 on the AML5 cell line (human), sequence (P36888 27-993): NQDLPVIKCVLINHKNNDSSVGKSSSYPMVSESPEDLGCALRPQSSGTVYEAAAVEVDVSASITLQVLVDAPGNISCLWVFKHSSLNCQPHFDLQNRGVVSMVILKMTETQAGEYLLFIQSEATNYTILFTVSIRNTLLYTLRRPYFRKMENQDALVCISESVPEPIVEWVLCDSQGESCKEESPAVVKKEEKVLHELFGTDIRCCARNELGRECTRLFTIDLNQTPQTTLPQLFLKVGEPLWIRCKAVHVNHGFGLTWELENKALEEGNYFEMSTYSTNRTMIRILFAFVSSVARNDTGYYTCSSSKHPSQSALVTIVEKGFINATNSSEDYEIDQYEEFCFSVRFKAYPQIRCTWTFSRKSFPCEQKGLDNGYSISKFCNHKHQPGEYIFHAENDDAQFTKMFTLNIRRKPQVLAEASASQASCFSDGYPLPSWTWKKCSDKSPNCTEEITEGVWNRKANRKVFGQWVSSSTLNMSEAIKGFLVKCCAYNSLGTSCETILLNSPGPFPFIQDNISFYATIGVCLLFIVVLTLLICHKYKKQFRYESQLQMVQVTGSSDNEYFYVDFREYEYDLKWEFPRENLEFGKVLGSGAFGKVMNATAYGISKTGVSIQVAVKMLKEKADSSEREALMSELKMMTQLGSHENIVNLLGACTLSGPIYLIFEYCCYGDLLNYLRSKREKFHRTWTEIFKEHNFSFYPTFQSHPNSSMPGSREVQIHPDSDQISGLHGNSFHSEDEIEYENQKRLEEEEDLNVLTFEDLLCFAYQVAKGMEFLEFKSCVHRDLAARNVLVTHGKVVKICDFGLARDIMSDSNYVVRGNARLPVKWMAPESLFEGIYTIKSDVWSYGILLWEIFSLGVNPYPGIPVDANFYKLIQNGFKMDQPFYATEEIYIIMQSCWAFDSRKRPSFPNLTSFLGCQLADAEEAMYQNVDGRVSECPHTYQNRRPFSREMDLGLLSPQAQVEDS

Regarding human IgG1 isotype antibody, the EC50 (commonly the concentration that produces a half-maximal response) in [1] worked out at 4.46 nM; in experiment [2], 32.1 nM; in [3], 4.44 nM; in [4] it was 5.25 nM; in experiment [5], 38.8 nM.

As to human IgG4 isotype antibody, the EC50 in [1] is 25.9 nM; in experiment [2] it was 326 nM; in experiment [6], 13.7 nM; in experiment [3], 13.6 nM; in experiment [7], 16.7 nM; in experiment [4], 14.5 nM. Moreover, the EC50 in experiment [5] came to 368 nM.

On to “recombinant human FLT3-ligand (from UniProt P49771 27-185)”, for which, in experiment [8], the EC50 (nM), M1 IL-6 release assay was 0.024 nM and the Emax (pg/ml), M1 IL-6 release assay worked out at 392 pg/mL. Further, the EC50 (nM), AML5 proliferation in [9] was determined as 0.039 nM.

As to “recombinant human FLT3-ligand human IgG1 fusion protein (Fc fusion)”, in experiment [8], the EC50 (nM), M1 IL-6 release assay is 0.117 nM and the Emax (pg/ml), M1 IL-6 release assay came out at 517 pg/mL.
